In PMC11199634:

Legend:
LgBiT-PP1α = LgBiT-PP1α (UniProt P62136); assay: lysate-based split-luciferase complementation; settings: mixed HEK293T lysates; signals normalized for the same expression level; n = 3; parent: est. 100; read off a plot
[1] = biological target: SDS22-KR7A (purified) (human) (UniProt Q15435); assay: ITC; 5 μM SDS22 in the cell titrated with 50 μM His-I3 (20 injections), 22 °C, MicroCal iTC200; binding curves not saturated
EGFP-I3-DE4A (human) = EGFP-I3-DE4A (human) (UniProt O60927); assay: co-IP; EGFP-trap (anti-EGFP nanobodies on agarose, 2 h, 4 °C) of transiently expressed EGFP fusions from HEK293T lysates (20 mM Tris pH 7.9, 0.3 M NaCl, 0.5% Triton X-100); endogenous partners by immunoblot
Chain of EGFP-I3-DE4A (human) (O60927 whole entry, the tested form may be a part): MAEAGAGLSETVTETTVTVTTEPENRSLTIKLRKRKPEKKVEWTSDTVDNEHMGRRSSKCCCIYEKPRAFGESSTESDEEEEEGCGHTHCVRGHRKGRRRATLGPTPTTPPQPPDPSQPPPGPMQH

Chain of LgBiT-PP1α (P62136 whole entry): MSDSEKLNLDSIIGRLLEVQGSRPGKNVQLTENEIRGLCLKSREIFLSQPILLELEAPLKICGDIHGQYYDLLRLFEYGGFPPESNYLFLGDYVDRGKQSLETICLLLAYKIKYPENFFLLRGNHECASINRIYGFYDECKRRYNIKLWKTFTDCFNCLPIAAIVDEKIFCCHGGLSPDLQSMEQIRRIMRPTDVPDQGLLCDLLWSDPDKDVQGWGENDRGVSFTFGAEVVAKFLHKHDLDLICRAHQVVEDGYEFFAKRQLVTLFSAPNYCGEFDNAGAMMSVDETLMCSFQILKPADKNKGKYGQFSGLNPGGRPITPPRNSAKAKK
Chain of I2-SmBiT (P41236 whole entry, change not shown): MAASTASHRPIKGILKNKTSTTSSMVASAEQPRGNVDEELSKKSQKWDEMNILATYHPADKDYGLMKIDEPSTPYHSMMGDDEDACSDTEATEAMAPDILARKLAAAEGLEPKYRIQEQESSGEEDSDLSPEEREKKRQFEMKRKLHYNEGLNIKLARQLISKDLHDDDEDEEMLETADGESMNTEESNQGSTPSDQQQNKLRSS
Chain of His-I3 (O60927 whole entry): as the sequence (O60927 whole entry, the tested form may be a part) above
Chain of I3^WT-SmBiT (O60927 whole entry, change not shown): as the sequence (O60927 whole entry, the tested form may be a part) above
Chain of PP1 (endogenous, HEK293T) (P62136 whole entry): as the sequence (P62136 whole entry) above
Chain of SDS22-KR7A (purified) (human) (Q15435 whole entry, the tested form may be a part): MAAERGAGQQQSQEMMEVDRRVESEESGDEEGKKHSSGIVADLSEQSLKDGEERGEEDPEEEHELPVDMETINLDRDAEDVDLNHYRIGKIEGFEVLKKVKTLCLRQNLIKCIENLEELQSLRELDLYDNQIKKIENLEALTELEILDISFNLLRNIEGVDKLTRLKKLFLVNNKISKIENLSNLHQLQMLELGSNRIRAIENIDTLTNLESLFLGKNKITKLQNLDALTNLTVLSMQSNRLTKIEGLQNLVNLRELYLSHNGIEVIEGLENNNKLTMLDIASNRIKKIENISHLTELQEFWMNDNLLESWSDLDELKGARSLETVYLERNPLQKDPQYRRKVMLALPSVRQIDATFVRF
Chain of RM-SmBiT (Q69YH5 whole entry, change not shown): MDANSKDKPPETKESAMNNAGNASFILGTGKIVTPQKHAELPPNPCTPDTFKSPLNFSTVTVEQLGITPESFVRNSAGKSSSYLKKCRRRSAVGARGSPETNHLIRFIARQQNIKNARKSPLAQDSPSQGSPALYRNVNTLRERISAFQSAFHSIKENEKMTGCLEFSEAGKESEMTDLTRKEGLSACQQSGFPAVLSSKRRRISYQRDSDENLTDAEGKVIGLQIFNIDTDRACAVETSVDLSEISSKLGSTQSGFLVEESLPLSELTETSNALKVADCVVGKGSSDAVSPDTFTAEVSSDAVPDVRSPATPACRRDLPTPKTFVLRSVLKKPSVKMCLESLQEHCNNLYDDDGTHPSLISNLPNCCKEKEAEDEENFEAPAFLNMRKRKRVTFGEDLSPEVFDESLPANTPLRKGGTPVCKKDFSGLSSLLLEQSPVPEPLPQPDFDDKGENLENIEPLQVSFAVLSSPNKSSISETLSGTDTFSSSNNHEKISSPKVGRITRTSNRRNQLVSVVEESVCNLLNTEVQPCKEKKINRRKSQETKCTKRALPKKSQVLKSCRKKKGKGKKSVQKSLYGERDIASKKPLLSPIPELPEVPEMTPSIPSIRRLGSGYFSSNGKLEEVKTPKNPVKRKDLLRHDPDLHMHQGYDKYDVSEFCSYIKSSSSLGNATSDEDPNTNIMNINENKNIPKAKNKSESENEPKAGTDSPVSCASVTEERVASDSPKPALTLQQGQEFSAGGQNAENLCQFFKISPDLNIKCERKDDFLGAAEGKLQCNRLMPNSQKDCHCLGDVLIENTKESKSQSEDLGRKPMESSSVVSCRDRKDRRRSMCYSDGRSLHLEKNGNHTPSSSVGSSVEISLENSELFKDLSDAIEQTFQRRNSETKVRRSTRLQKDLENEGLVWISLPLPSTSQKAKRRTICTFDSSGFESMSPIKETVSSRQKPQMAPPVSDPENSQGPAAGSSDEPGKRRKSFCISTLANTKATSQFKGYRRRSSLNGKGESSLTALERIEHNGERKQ

| Substance | percent of parent (% of RIPPOs^WT-SmBiT) (LgBiT-PP1α) | also measured |
| --- | --- | --- |
| His-I3 (from UniProt O60927 1-126) (natural protein) |  | Kd [1]: 128 µM |
| I3^WT-SmBiT (from UniProt O60927) RATA | 6 |  |
| PP1 (endogenous, HEK293T) (from UniProt P62136 1-330) (enzyme) |  | percent decrease of binding against EGFP-I3-WT (EGFP-I3-DE4A (human)): 35% |

Continued, in another order:

| percent of parent (% of RIPPOs^WT-SmBiT) (LgBiT-PP1α) | Substance | also measured |
| --- | --- | --- |
| 10 | RM-SmBiT (from UniProt Q69YH5) RATA |  |
| 32 | I2-SmBiT (from UniProt P41236) RATA |  |
